Values of other authors as cited in PMC4958339.

Key:
Lgl = Lgl (UniProt P08111)
Pins/LGN = Pins/LGN (UniProt Q8VDU0)
Chain of UniProt Q8VDU0 (Q8VDU0 392-414): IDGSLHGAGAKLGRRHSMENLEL

Chain of UniProt P08111 (P08111 648-670): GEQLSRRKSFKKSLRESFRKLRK

- Kd (Lgl): 10.2 µM
- Kd (Pins/LGN): 0.33 µM
Substance: Dlg GUK (from UniProt Q12959)
